“Also recorded” adds a separate entry of the source.
Legend:
RPS24 = molecular target: T1, RPS24 (Homo sapiens, UniProt P62847); experiment: Flag IP-MS of i53/i53-DM baits: prey RPS24; format: binding; settings: 293T Flp-In/T-Rex extracts, LC-MS/MS, one column per replicate IP
T1 construct: endogenous in cells; host or cells: HEK293 Flp-In/T-REx
Experimental: (§1) Following immunoprecipitation of Flag-tagged i53 and i-53-DM from HEK293 Flp-In/T-REx cells, peptides were identified using LC-MS/MS. Proteins were digested in solution with trypsin (Sigma, T7575-1KT) and dried to completeness. For LC-MS/MS analysis, peptides were reconstituted in 5% formic acid and loaded onto a 12-15 cm fused silica column with pulled tip packed in-house with 3.5 μm Zorbax C18 (Agilent Technologies, Calif., USA).
(§2) i53 and i53-DM precipitates were analyzed using an LTQ (Thermo Scientific) coupled to an Agilent 1100 Series HPLC (Agilent Technologies). Peptides were eluted from the column using a 90 min period cycle with a linear gradient from 0% to 40% ACN in 0.1% formic acid. Tandem MS spectra were acquired in a data-dependent mode for the top 5 (LTQ) most abundant ions using collision-induced dissociation. Acquired spectra were searched against the human Refseq_V53 database using Mascot (Matrix Science).
(§3) 293T Flp-In/T-Rex cell lines were generated that expressed Flag-tagged i53 or i53-DM under the control of a tetracycline-inducible promoter as previously described. Nine IP-MS experiments were analyzed (3 biological replicate IPs each for control i53- and i53-DM expressing cell lines). The interacting proteins were identified by MASCOT to identify high-confidence interactors for i53. […]

RPL10 = molecular target: T2, RPL10 (Homo sapiens, UniProt P27635); experiment: Flag IP-MS of i53/i53-DM baits: prey RPL10; format: binding; settings: 293T Flp-In/T-Rex extracts, LC-MS/MS, one column per replicate IP
T2 construct: endogenous in cells; host or cells: HEK293 Flp-In/T-REx
Experimental: as §1, §2, §3

RPL29 = molecular target: T3, RPL29 (Homo sapiens, UniProt P47914); experiment: Flag IP-MS of i53/i53-DM baits: prey RPL29; format: binding; settings: 293T Flp-In/T-Rex extracts, LC-MS/MS, one column per replicate IP
T3 construct: endogenous in cells; host or cells: HEK293 Flp-In/T-REx cells
Experimental: as §1, §2, §3

HIST2H2BE = molecular target: T4, HIST2H2BE (Homo sapiens, UniProt Q16778); experiment: Flag IP-MS of i53/i53-DM baits: prey HIST2H2BE; format: binding; settings: 293T Flp-In/T-Rex extracts, LC-MS/MS, one column per replicate IP
T4 construct: endogenous in cells; host or cells: HEK293 Flp-In/T-REx cells
Experimental: as §1, §2, §3

[1] = test system: gene conversion (HR) in U2OS DR-GFP cells; experiment: Direct-repeat (DR)-GFP gene conversion assay; format: cell-based, human
Experimental: (§4) FIG. 4. Activation of HR by i53. FIG. 4A, Schematic of the DR-GFP assay. FIG. 4B. U2OS DR-GFP cells were transfected with the vectors expressing i53, the DM mutant or an empty vector control (EV) along with an I-Scel expression vector. The percentage of GFP-positive cells was determined 48 h post-transfection for each condition and was normalized to the empty vector condition (mean±s.d., N=4). FIG. 4C, U2OS DR-GFP were first transfected with siRNAs targeting the 53BP1 or BRCA1 mRNAs along with a non-targeting siRNA (CTRL). 24 h post-transfection, cells were transfected with the I-SceI expression vector and the percentage of GFP-positive cells was determined 48 h post-siRNA transfection for each condition. The values were normalized to the empty vector condition and presented as the mean±s.e.m; N=4. FIG. 4D, Schematic of the gene targeting assay. FIG. 4E, Gene targeting efficiency at the LMNA locus in parental or 53BP1Δ U2OS cells following transfection with vectors expressing Flag-tagged i53 or its DM mutant or an empty vector control (EV). The DNA-PK inhibitor NU7441 was also added where indicated. 24 h post-transfection, cells were analysed for mClover fluorescence. Individual experiments are presented with the error bar representing the s.d., (N=3). FIG. 4F, Gene targeting at the LMNA locus in G 1-arrested parental (WT) or 53BP1Δ U2OS cells transfected with vectors expressing Flag-tagged i53 or its DM mutant or an empty vector control (EV). The DNA-PK inhibitor NU7441 was also added in the indicated conditions. 24 h post-transfection, cells were analysed for mClover fluorescence. Individual experiments are present with the error bar representing the s.d., (N=3).
The direct repeat (DR)-GFP assay to measure the frequency of HR and the strand annealing EJ2-GFP assay to measure the frequency of MMEJ were performed as previously described. Briefly, U2OS DR-GFP or U2OS EJ2-GFP cells were transfected with 10 nM siRNA (Dharmacon) using Lipofectamine RNAiMAX (Invitrogen). 24 h later, the cells were transfected with the pCBASceI plasmid (Addgene #26477) and plasmids, using Lipofectamine 2000 (Invitrogen). 48 h post-plasmid transfection, the cells were trypsinized and the percentage of GFP-expressing cells was analyzed using the BD FACSCalibur flow cytometer.
AAV-293 cells (Agilent) were transfected with pAAV expression, pDJ and pHelper constructs (Cell Biolabs, Inc., USA) in equal amounts using PEI to produce AAV-DJ expression viruses. 48-72 h later, the viral supernatant was used to transduce target cells for 24 h, and assays were initiated a further 24 h later.

[2] = test system: gene targeting at the LMNA locus in U2OS cells; experiment: LMNA mClover gene targeting assay (CRISPR/Cas9); format: cell-based
Experimental: as §4
The Lamin A (LMNA) assay to measure the frequency of introduction of the coding sequence for mClover at the 5′ end of LMNA using the CRISPR/Cas9 was performed as previously described4. Parental or 53BP1Δ U2OS cell lines were transfected with the indicated plasmids using Lipofectamine RNAiMAX (Invitrogen). 24 h later, the cells were electroporated with 2.5 μg of sgRNA plasmids and 2.5 μg of donor template using a Nucleofector (Lonza; protocol X-001). Parental or 53BP1Δ U2OS cells stably expressing CtIP-T847E mutant were transfected with an siRNA against KEAP1 and the indicated plasmids and processed as previously described.

NAP1L1 = molecular target: T5, NAP1L1 (Homo sapiens, UniProt P55209); experiment: Flag IP-MS of i53/i53-DM baits: prey NAP1L1; format: binding; settings: 293T Flp-In/T-Rex extracts, LC-MS/MS, one column per replicate IP
T5 construct: endogenous in cells; host or cells: HEK293 Flp-In/T-REx
T5 sequence (P55209 1-391): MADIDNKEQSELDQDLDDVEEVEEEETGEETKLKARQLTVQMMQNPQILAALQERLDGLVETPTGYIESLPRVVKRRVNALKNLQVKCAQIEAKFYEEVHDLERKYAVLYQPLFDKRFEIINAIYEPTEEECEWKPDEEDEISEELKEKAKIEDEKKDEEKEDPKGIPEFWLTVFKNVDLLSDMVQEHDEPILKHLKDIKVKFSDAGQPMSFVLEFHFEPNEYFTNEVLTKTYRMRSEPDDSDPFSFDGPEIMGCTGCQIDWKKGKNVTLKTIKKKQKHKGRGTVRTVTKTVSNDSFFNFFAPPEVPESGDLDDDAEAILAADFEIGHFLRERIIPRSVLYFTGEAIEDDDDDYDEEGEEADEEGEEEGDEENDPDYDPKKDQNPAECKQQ
Experimental: as §1, §2, §3

Substance | Total peptides, RPS24 (RPS24) | Total peptides, RPL10 (RPL10) | Total peptides, RPL29 (RPL29) | Total peptides, HIST2H2BE (HIST2H2BE) | Homologous recombination in DR-GFP gene conversion assay after AAV-mediated delivery ([1]; AAV-DJ delivery, versus Flag-i53-DM) | Gene conversion in DR-GFP assay (comparison in words) ([1]; SCR7 at 1 μM, i53 by plasmid expression) | Gene targeting at the LMNA locus in 53BP1Δ cells ([2]; 53BP1Δ U2OS cells) | Cas9-stimulated gene targeting at the LMNA locus in G1 ([2]; G1-arrested U2OS cells expressing CtIP-T847E, KEAP1 siRNA, compared with 53BP1 knockout) | Gene targeting at the LMNA locus, i53 combined with DNA-PK inhibition ([2]; i53 plus NU7441 (10 μM)) | Change of gene targeting at the LMNA locus (in words) ([2]; parental U2OS cells, NU7441 at 10 μM) | Gene targeting efficiency at the LMNA locus (mClover-positive cells) ([2]; parental U2OS cells, empty vector control 4.79% +/−0.5%) | Total peptides, NAP1L1 (NAP1L1)
i53-DM: 53BP1-binding deficient mutant of i53 (P69L, L70V) | 4 | 11 | 3 | 3 | – | – | – | – | – | – | – | –
i53: UbvG08 with C-terminal di-glycine removed and I44A mutation; genetically encoded inhibitor of 53BP1 | – | – | – | – | stimulate homologous recombination | more potent inducer of gene conversion; also recorded: stimulated gene conversion more than 53BP1 depletion by siRNA | did not result in a further increase in gene targeting | nearly as efficient as the 53BP1 knockout | additive increase in gene targeting | nearly two-fold; also recorded: approached that of 53BP1-null cells | 8.58% | 4
